Measured values taken from article PMC6776665.
pKd: −log10 of the molar value.

How the values were obtained:
[1] = molecular target: GST-tagged TRIM21-RING (residue 1-85) (UniProt P19474); assay: SPR; BIAcore T200; GST-T21-R captured on an anti-GST antibody-coated CM5 chip (GST on the reference channel); Ube2N or Ube2N~Ub injected in 1:2 dilution series from 80 µM; 30 µl/min; 20 mM Tris-HCl pH 8.0, 150 mM NaCl, 1 mM DTT; 25 °C; KD from equilibrium responses, single-site model
TRIM21-RING^M10E/E12R = TRIM21-RING^M10E/E12R (UniProt P19474); assay: NMR titration; Ube2N^C87K/K92A titrated into 100 µM 15N-labelled T21-R^M10E constructs; KD from fits of chemical shift perturbations (five peaks); 25 °C; 50 mM deuterated Tris pH 7.0, 150 mM NaCl, 1 mM deuterated DTT
TRIM21-RING^M10E = TRIM21-RING^M10E (UniProt P19474); assay: as above

Row | pKd [1] | koff [1] [s⁻¹] | pKd (TRIM21-RING^M10E/E12R) | pKd (TRIM21-RING^M10E) | Substance
1 | 4.37 | > 1 |  |  | Ube2N (as used in the SPR experiment) (enzyme)
2 |  |  | 4.24 | 4.82 | Ube2N^C87K/K92A (enzyme)
3 | 5.30 | 0.15 |  |  | isopeptide-linked Ube2N^C87K/K92A~ubiquitin conjugate (from UniProt P0CG48 1-76) (complex)
